Values of other authors in publication PMC8403128.
Where two headings read alike, the source gives them in different places.

Assays:
[1] = target: Low-density lipoprotein receptor-related protein 1 (Homo sapiens) (UniProt Q07954)
[2] = target: Low-density lipoprotein receptor-related protein 1 (Homo sapiens) (UniProt Q07954); remark: listed apart in the source

Chain of UniProt Q07954 (Q07954 4441-4544): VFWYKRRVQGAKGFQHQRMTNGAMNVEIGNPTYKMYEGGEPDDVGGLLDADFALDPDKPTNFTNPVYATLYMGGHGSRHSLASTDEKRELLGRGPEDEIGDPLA

Matrix metalloproteinase-1 (from UniProt P03956)
Kd [1]: > 1000 nM

Matrix metalloproteinase-3 (from UniProt P08254)
Kd [2]: > 1000 nM
